According to article doi:10.1101/681668 (bioRxiv, 2019):
Substitutions are numbered along the chain they refer to.

Experiments:
Test in all cases: pull-down
[1] = target: T1, MBP-ORC1 (human, UniProt Q13415 1-861)
T1 sequence: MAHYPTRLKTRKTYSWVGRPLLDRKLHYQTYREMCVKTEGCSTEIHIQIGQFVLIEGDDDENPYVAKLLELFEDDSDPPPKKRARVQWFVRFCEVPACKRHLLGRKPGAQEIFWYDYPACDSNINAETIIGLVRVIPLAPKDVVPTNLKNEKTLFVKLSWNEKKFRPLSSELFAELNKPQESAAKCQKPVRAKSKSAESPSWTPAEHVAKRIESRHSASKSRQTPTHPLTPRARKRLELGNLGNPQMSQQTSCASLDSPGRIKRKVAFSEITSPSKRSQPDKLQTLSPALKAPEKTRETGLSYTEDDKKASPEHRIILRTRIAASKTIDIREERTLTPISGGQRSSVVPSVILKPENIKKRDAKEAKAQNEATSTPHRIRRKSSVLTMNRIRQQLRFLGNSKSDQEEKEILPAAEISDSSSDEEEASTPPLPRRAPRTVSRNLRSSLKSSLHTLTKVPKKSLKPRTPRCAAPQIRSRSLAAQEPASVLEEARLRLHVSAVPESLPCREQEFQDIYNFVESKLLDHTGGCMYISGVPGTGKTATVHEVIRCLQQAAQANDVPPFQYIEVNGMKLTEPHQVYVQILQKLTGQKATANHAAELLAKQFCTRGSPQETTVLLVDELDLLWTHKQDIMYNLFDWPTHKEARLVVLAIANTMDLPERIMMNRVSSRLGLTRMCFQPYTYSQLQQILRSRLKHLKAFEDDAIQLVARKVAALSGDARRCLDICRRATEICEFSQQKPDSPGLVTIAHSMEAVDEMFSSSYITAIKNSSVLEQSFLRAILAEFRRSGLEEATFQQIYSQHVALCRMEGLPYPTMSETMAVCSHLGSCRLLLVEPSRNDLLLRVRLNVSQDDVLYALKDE

[2] = target: T2, MBP-ORC1 CDK3 (human, UniProt Q13415 1-861, T375A)
T2 sequence: T1 sequence with T375A

[3] = target: T3, MBP-ORC1 CDK12 (human, UniProt Q13415 1-861, S258A | S273A)
T3 sequence: T1 sequence with S258A, S273A

binding result [1]: binds
binding result [2]: binds
binding result [3]: binds
B1: GST-CDC6 (natural protein)
chain: MPQTRSQAQATISFPKRKLSRALNKAKNSSDAKLEPTNVQTVTCSPRVKALPLSPRKRLGDDNLCNTPHLPPCSPPKQGKKENGPPHSHTLKGRRLVFDNQLTIKSPSKRELAKVHQNKILSSVRKSQEITTNSEQRCPLKKESACVRLFKQEGTCYQQAKLVLNTAVPDRLPAREREMDVIRNFLREHICGKKAGSLYLSGAPGTGKTACLSRILQDLKKELKGFKTIMLNCMSLRTAQAVFPAIAQEICQEEVSRPAGKDMMRKLEKHMTAEKGPMIVLVLDEMDQLDSKGQDVLYTLFEWPWLSNSHLVLIGIANTLDLTDRILPRLQAREKCKPQLLNFPPYTRNQIVTILQDRLNQVSRDQVLDNAAVQFCARKVSAVSGDVRKALDVCRRAIEIVESDVKSQTILKPLSECKSPSEPLIPKRVGLIHISQVISEVDGNRMTLSQEGAQDSFPLQQKILVCSLMLLIRQLKIKEVTLGKLYEAYSKVCRKQQVAAVDQSECLSLSGLLEARGILGLKRNKETRLTKVFFKIEEKEIEHALKDKALIGNILATGLP
